This is an account of results in US9326950B2, “Self-assembling nanoparticles composed of transmembrane peptides and their application for specific intra-tumor delivery of anti-cancer drugs” (The United States of America, as represented by the …, priority 2006, dated 2016).

Where no end group is shown, it is not given here.

The test system of data set [1] is MDA-MB-231 breast cancer cells. Put plainly: Survival in mouse model of breast cancer lung metastasis. The format is in vivo, nude mice. As to the method: FIG. 3 is a graph of percent survival (%) versus days on treatment for three groups of nude mice intravenously injected with one million MDA-MB-231 breast cancer cells. On the day following the intravenous injection with the breast cancer cells and continuing twice weekly, the mice were intraperitoneally injected with (1) PBS only (Control); (2) 3 mg/kg of nanoparticles of SEQ ID NO: 1-PEG27 dissolved in PBS (X4-4-6, 3 mg/kg); or (3) 12 mg/kg of nanoparticles of SEQ ID NO: 1-PEG27 dissolved in PBS (X4-4-6, 12 mg/kg).
One million MDA-MB-231 breast cancer cells were injected in nude mice intraveneously on Day 0. On Day 1 and continuing twice weekly, mice were intraperitoneally injected with (1) 3 mg/kg of nanoparticles of the TM peptide of SEQ ID NO: 1-PEG27 dissolved in PBS; (2) 12 mg/kg of nanoparticles of the TM peptide of SEQ ID NO: 1-PEG27 dissolved in PBS; or (3) a control (PBS only).

Data set [2] in a line: Multi-angle light scattering, molecular weight of peptide aggregates and degree of aggregation. The format is physicochemical. The conditions noted are these: for MW (g/mol): 0.1 M Tris-HCl pH 7.2. As to the method:
To determine the influence of hydrophilic tail length on nanoparticle aggregation, the degree of aggregation was determined by multi-angle light scattering for TM peptides with the amino acid sequences of SEQ ID NO: 1; SEQ ID NO: 1-PEG11; SEQ ID NO: 1-PEG27; SEQ ID NO: 1-PEG38; and SEQ ID NO: 1-GGGGG.
The peptides were dissolved in DMSO and diluted with 0.1 M Tris-HCl buffer (pH 7.2) to provide 0.4 mg/ml peptide solutions. This was used for further dilutions. The final concentration of DMSO was either 2.5% or 1.25% (kept constant for all dilutions in the series). The samples were sonicated at maximum intensity for 10 minutes and left at room temperature overnight (about 20 hours before measurements). The following day, the samples were centrifuged at 13200 rpm for 30 minutes.
Light scattering (LS) studies were performed by a DAWN EOS multi-angle detector (Wyatt Technology Corp., Santa Barbara, Calif.) at a laser wavelength of 690 nm. The LS detector was connected with an Agilent 1100 HPLC system (Agilent Technologies, Palo Alto, Calif.). The MALS detector was calibrated with HPLC grade toluene, 99.8% (Aldrich Chemicals, Milwaukee, Wis.), which was filtered through a […] Anotop-25 inorganic membrane filter and then normalized with albumin (bovine) 98% monomer (Sigma Chemicals, St. Louis, Mo.). The data were collected and processed using Astra software (Wyatt Technology Corp.; version 4.90.04).
To determine the molecular weight of the peptide aggregates and the aggregation state, LS micro-batch measurements were performed. In brief, solvent was delivered through the HPLC system, bypassing the column compartment, at a flow rate of 0.05 ml/min. 900 μl samples with different peptide concentrations were injected through the HPLC autosampler. Four peptide concentrations were analyzed (i.e., 0.05 mg/ml, 0.1 mg/ml, 0.2 mg/ml, and 0.4 mg/ml). The concentrations were determined from weight measurements, since strong light scattering made traditional UV-absorbance determination inaccurate. The LS signal was collected for each concentration. Molecular weight was determined for each concentration separately using Astra software with a Debye plot and the Zimm equation. A single slice of collected signal giving the smallest error was chosen for molecular weight calculation at each concentration.

Data set [3] can be described thus: WMC77 fluorescence emission with increasing amounts of nanoparticles. The format is physicochemical. The conditions noted are these: increasing amounts of the nanoparticles. As to the method:
FIG. 1 is a graph of fluorescence emission intensity (a.u.) versus concentration (mg/ml) of nanoparticles comprising SEQ ID NO: 1-PEG11 (represented by circles) or SEQ ID NO: 1-PEG38 (represented by open squares).
FIG. 2 is a graph of wavelength maximum (nm) versus concentration (μM) of nanoparticles comprising SEQ ID NO: 1-PEG11 (represented by circles) or SEQ ID NO: 1-PEG38 (represented by open squares).
Various amounts of nanoparticles (SEQ ID NO:1-PEG11 or SEQ ID NO 1-PEG38) were added to solutions of WMC77. The fluorescence emission intensity and shift in emission maxima were measured with the results depicted in FIGS. 1 and 2.

Data set [4] deals with MDA-231 breast cancer cells. The settings on record: mouse, in vivo.
Experimental: A CXCR4-TM domain 2-derived pegylated peptide labeled with Alexa546 fluorescent dye was prepared. […] Ten μl of peptide were diluted with 630 μl PBS (to produce 2 mg/ml peptide solution), sonicated for 10 minutes, and used for intratumoral injection.
Nude mice were inoculated in a breast pad with one million MDA-231 breast cancer cells. Six weeks later, when tumor sizes reached about 5 mm in diameter, 0.1 ml of 2 mg/ml solution of the fluorescent nanoparticles in PBS were injected into a breast pad near the tumor.
Whole animals and excised tumors were imaged utilizing the Maestro 420 In-Vivo Spectral Imaging System (Cambridge Resources and Instrumentation, Inc.).
The nature of data set [5]: Fluorescence energy transfer between WMC77 and Alexa 546-labeled nanoparticles. The format is physicochemical. The conditions noted are these: WMC77 final concentration 300 nM.
The nature of data set [6]: Transmission electron microscopy of peptide nanoparticles. The settings on record: negative charges replaced by positive charges. The format is physicochemical. How it is done: Peptides were solubilized in DMSO to yield 32 mg/ml solution. DMSO stocks were diluted with phosphate buffered saline (PBS) to produce 0.05-0.5 mg/ml solutions. Two μl of a sample were applied directly on microscopy grids, air-dried, stained with 0.5% (w/v) osmium tetroxide (OsO4), and visualized with a Hitachi H-7000 electron microscope.

Setting [7] is: 3 mg/kg intraperitoneally twice weekly.
[8] abbreviates: 12 mg/kg intraperitoneally twice weekly.
Where [9] appears, read: aggregate MW at 0.05 mg/ml peptide.
[10] abbreviates: aggregate MW at 0.1 mg/ml peptide.
The mark [11] stands for this setting: aggregate MW at 0.2 mg/ml peptide.
The mark [12] stands for this setting: aggregate MW at 0.4 mg/ml peptide.

For “SEQ ID NO: 1-PEG27: TM peptide of SEQ ID NO: 1 with hydrophilic oligomer PEG27 added; CXCR4 peptide nanoparticles (LLFVITLPFWAVDAVANWYFGNDD; not fully specified; also: PEG27 added)”, the “survival by Day 75” value in data set [1] (setting [7]) was “about 40%”; in data set [1] (setting [8]), 100%. Further, in data set [1] (setting [7]), the “survival by Day 91” value was “no surviving animals”. Besides, the body weight result in data set [1] (setting [8]) is recorded as “continued to gain weight”. In addition, the “survival until the end of the experiment (Day 140)” value in data set [1] (setting [8]) is on record as “a significant number of the animals administered 12 mg/kg of nanoparticles survived”. The “N, degree of aggregation (molecules per particle)” value in data set [2] (0.05 mg/ml peptide) is 286 molecules per particle; in data set [2] (0.1 mg/ml peptide), 176 molecules per particle; in data set [2] (0.2 mg/ml peptide), 167 molecules per particle; in data set [2] (0.4 mg/ml peptide), 90 molecules per particle. Further, the “MW (g/mol)” value in data set [2] (setting [9]) is reported as 1,171,000 ± 190,000 g/mol; in data set [2] (setting [10]) it was 719,400 ± 100,700 g/mol; in data set [2] (setting [11]), 682,000 ± 105,000 g/mol; in data set [2] (setting [12]) it was 367,100 ± 38,400 g/mol.
Regarding LLFVITLPFWAVDAVANWYFGNDD [SEQ ID NO: 1], the figures for the “N, degree of aggregation (molecules per particle)” value in data set [2] (0.05 mg/ml peptide), in data set [2] (0.1 mg/ml peptide) and in data set [2] (0.2 mg/ml peptide) were 4090 molecules per particle, 2478 molecules per particle and 2494 molecules per particle, respectively. For the same compound, the “MW (g/mol)” value is reported as 11,400,000 ± 40,000 g/mol in data set [2] (setting [9]), 6,906,000 ± 22,000 g/mol in data set [2] (setting [10]) and 6,952,000 ± 22,000 g/mol in data set [2] (setting [11]).
As for “SEQ ID NO: 1-PEG38: TM peptide of SEQ ID NO: 1 with PEG38, obtained by sequential coupling of PEG11 and PEG27 (LLFVITLPFWAVDAVANWYFGNDD; also: PEG38 added (PEG11 + PEG27))”, the “emission maxima of WMC77” value in data set [3] is listed as “a shift in emission maxima”. In addition, the “fluorescence emission intensity of WMC77” value in data set [3] is “an increase in fluorescence emission intensity”. For the same compound, the “N, degree of aggregation (molecules per particle)” value in data set [2] (0.1 mg/ml peptide) was 93 molecules per particle; in data set [2] (0.2 mg/ml peptide) it was 19 molecules per particle; in data set [2] (0.4 mg/ml peptide), 24 molecules per particle. Besides, the “MW (g/mol)” value in data set [2] (setting [10]) is on record as 436,100 ± 20,300 g/mol; in data set [2] (setting [11]), 90,950 ± 9,210 g/mol; in data set [2] (setting [12]), 110,500 ± 5,600 g/mol.
As for “SEQ ID NO: 8-PEG27: deletion mutant lacking the five N-terminal amino acid residues of SEQ ID NO: 1, with PEG27 (TLPFWAVDAVANWYFGNDD; not fully specified; also: PEG27 added)”, the “N, degree of aggregation (molecules per particle)” value in data set [2] (0.1 mg/ml peptide) stood at 9 molecules per particle; in data set [2] (0.2 mg/ml peptide), 10 molecules per particle; in data set [2] (0.4 mg/ml peptide), 10 molecules per particle. The “MW (g/mol)” value is on record as 29,550 ± 4,630 g/mol in data set [2] (setting [10]), 32,660 ± 6,730 g/mol in data set [2] (setting [11]) and 34,520 ± 7,850 g/mol in data set [2] (setting [12]).
With “TM peptide-Alexa conjugate: CXCR4-TM domain 2-derived pegylated peptide SEQ ID NO: 1-Peg11-Hcy-Peg27 labeled with Alexa546 fluorescent dye (LLFVITLPFWAVDAVANWYFGNDD; also: Peg11-Hcy-Peg27 attached, Alexa546 label)”, in data set [4], the “penetration of tumor vasculature” value is recorded as “effectively penetrate tumor vasculature”. In addition, in data set [5] (with additive), the “Fluorescence Intensity (a.u.) of WMC77 solutions” value is reported as 295 a.u.
As to LLFVITLPFWAVDAVANWYFGNKK [SEQ ID NO: 6], the “particle size and uniformity” value in data set [6] is given as “much large particles with highly variable diameters”.
On to `NCCCN1CCN(CCCNc2ccc3ncn4c5ccccc5c(=O)c2c34)CC1` [WMC77, 5-{3-[4-(aminopropyl)-piperazin-1-yl]-propylamino}-2,10b-diaza-aceanthrylen-6-one, reference compound], for which the “Fluorescence Intensity (a.u.) of WMC77 solutions” value in data set [5] (No TM peptide) came to 622 a.u.
On to “SEQ ID NO: 1-GGGGG: TM peptide of SEQ ID NO: 1 with polyglycine tail GGGGG (LLFVITLPFWAVDAVANWYFGNDD; C-terminal GGGGG tail)”, for which the “N, degree of aggregation (molecules per particle)” value in data set [2] (0.05 mg/ml peptide) is 1614 molecules per particle; in data set [2] (0.1 mg/ml peptide), 664 molecules per particle; in data set [2] (0.2 mg/ml peptide), 282 molecules per particle; in data set [2] (0.4 mg/ml peptide) it was 55 molecules per particle. The “MW (g/mol)” value is 4,957,000 ± 8,000 g/mol in data set [2] (setting [9]), 2,041,000 ± 4,000 g/mol in data set [2] (setting [10]), 865,600 ± 2,700 g/mol in data set [2] (setting [11]) and 169,700 ± 300 g/mol in data set [2] (setting [12]).
“SEQ ID NO: 1-PEG11: TM peptide of SEQ ID NO: 1 with hydrophilic oligomer PEG11 added (LLFVITLPFWAVDAVANWYFGNDD; not fully specified; also: PEG11 added)”: the “emission maxima of WMC77” value in data set [3] is given as “a shift in emission maxima”. In addition, the “fluorescence emission intensity of WMC77” value in data set [3] is “an increase in fluorescence emission intensity”. Further, the “N, degree of aggregation (molecules per particle)” value in data set [2] (0.05 mg/ml peptide) is 743 molecules per particle; in data set [2] (0.1 mg/ml peptide), 316 molecules per particle; in data set [2] (0.2 mg/ml peptide), 137 molecules per particle; in data set [2] (0.4 mg/ml peptide) it was 54 molecules per particle. Further, the “MW (g/mol)” value in data set [2] (setting [9]) is 2,515,000 ± 69,000 g/mol; in data set [2] (setting [10]) it was 1,069,000 ± 20,000 g/mol; in data set [2] (setting [11]), 463,800 ± 6,800 g/mol; in data set [2] (setting [12]) it was 183,200 ± 900 g/mol.
